# Assay results: patent US8685401B2, “Methods of enhancing the response to radiation in tumor therapy using anti-DLL4 antibodies” (priority 2011, dated 2014)
# B1: TRAIL: recombinant TRAIL (R&D Systems), positive control for apoptosis (protein, UniProt P50591 1-281, looked up)
# Tumor necrosis factor ligand …: MAMMEVQGGPSLGQTCVLIVIFTVLLQSLCVAVTYVYFTNELKQMQDKYSKSGIACFLKEDDSYWDPNDEESMNSPCWQVKWQLRQLVRKMILRTSEETISTVQEKQQNISPLVRERGPQRVAAHITGTRGRSNTLSSPNSKNEKALGRKINSWESSRSGHSFLSNLHLRNGELVIHEKGFYYIYSQTYFRFQEEIKENTKNDKQMVQYIYKYTSYPDPILLMKSARNSCWSKDAEYGLYSIYQGGIFELKENDRIFVSVTNEHLIDMDHEASFFGAFLVG
# Test system: LS174T cells
# Experiment: Apoptosis, Caspase-Glo 3/7 assay
# Format: cell-based, human
# Details: 50 nM recombinant TRAIL, 2 hrs
molecule,measurement,value
B1,"apoptosis (caspase 3/7), positive control",large increase in apoptosis
